According to patent US20210246204A1 (Alector, published 2021):
Where a chain is given by its changes, count along the chain named.

B1: S7AB-H8.1 (antibody, V domains shown)
VH: QVQLVQSGAEVKKPGASVKVSCKASGYAFTETWMNWVRQAPGQGLEWIGRIFPGLGHTNYAQKFQGRATLTEDTSTSTAYMELSSLRSEDTAVYYCARDYSDYYFDYWGQGTLVTVSS
VL: DIQMTQSPSSLSASVGDRVTITCRGSQDINTYLNWYQQKPGKAPKLLIYYTSRLHSGVPSRFSGSGSGTDYTLTISSLQPEDFATYYCQQGNLLPWTFGQGTKLEIK
B2: S7AB-H8.3 (antibody, V domains shown)
VH: B1 VH with E31G, T32Y
VL: B1 VL
B3: S7AB-H8.10 (antibody, V domains shown)
VH: B1 VH with T32A, L55Y
VL: B1 VL with L93T, L94K
B4: S7AB-H8.9 (antibody, V domains shown)
VH: B1 VH with E31A, T32A
VL: B1 VL with L93T, L94K
B5: S7AB-H8.4 (antibody, V domains shown)
VH: B1 VH with E31A, T32A
VL: B1 VL
B6: S7AB-H8.15 (antibody, V domains shown)
VH: B1 VH with T32A, L55Y
VL: B1 VL with Q90G, L93T
B7: S7AB-H8.6 (antibody, V domains shown)
VH: B1 VH
VL: B1 VL with L93T, L94K
B8: S7AB-H8.2 (antibody, V domains shown)
VH: B1 VH with E31M, T32A, L55Y
VL: B1 VL
B9: S7AB-H8.11 (antibody, V domains shown)
VH: B1 VH
VL: B1 VL with Q90G, L93T
B10: S7AB-H8.8 (antibody, V domains shown)
VH: B1 VH with E31G, T32Y
VL: B1 VL with L93T, L94K
B11: S7AB-H8.13 (antibody, V domains shown)
VH: B1 VH with E31G, T32Y
VL: B1 VL with Q90G, L93T
B12: S7AB-H8.5 (antibody, V domains shown)
VH: B1 VH with T32A, L55Y
VL: B1 VL
B13: S7AB-H8.7 (antibody, V domains shown)
VH: B1 VH with E31M, T32A, L55Y
VL: B1 VL with L93T, L94K
B14: S7AB-H8.12 (antibody, V domains shown)
VH: B1 VH with E31M, T32A, L55Y
VL: B1 VL with Q90G, L93T
B15: S7AB-H8.14 (antibody, V domains shown)
VH: B1 VH with E31A, T32A
VL: B1 VL with Q90G, L93T
B16: S7AB-H8.45.1 (antibody, V domains shown)
VH: B1 VH with T32A, G44R, L55Y
VL: B1 VL with L93I
B17: S7AB-H8.45.2 (antibody, V domains shown)
VH: B1 VH with T32A, P41R, G44R, L55Y
VL: B1 VL with L93I
B18: S7AB-H8.44.1 (antibody, V domains shown)
VH: B1 VH with E31A, T32A, G44R
VL: B1 VL with L93I
B19: S7AB-H8.44.2 (antibody, V domains shown)
VH: B1 VH with E31A, T32A, P41R, G44R
VL: B1 VL with L93I
B20: S7AB-H8.35.2 (antibody, V domains shown)
VH: B1 VH with T32A, P41R, G44R, L55Y
VL: B1 VL with N92G, L93T
B21: S7AB chimeric antibody (antibody, V domains shown)
VH: QVHLQQSGPELVKPGASVKISCKASGYAFTNCWMNWVRQRPGKGLDWIGRIFPGNGHTNYSGKFKDKATLTEDKSSSTAYMQLSSLTSEDSAVYFCARDYSDYYFDYWGQGTTLTVSS
VL: DVQMTQTTSSLSASLGDRVTISCRASQDINTYLNWYQQKPDGTVKLLIYYTSRLHSGVPSRFSGSGSGTDYSLTISNLEQEDIATYFCQQGNTLPWTFGGGTKLEIK

These binders were tested against T1, histidine-tagged human Siglec-7 (NovoProtein) (human, UniProt Q9Y286 19-353) (assay: BLI, antibody captured).
T1 construct: Bought protein; also called recombinant human Siglec-7; recombinant Siglec-7; not shown: histidine tag
Protocol: In this assay, the humanized antibodies were compared directly to S7AB. Briefly, the antibodies were captured on anti-human or anti-mouse IgG Fc Biosensors (Pall ForteBio). Varying concentrations (0-100 nM) of histidine-tagged human Siglec-7 (NovoProtein) were then bound to the captured anti-Siglec-7 surface (200 s association time, 900 s dissociation time). Multi-concentration kinetic analysis was performed using a 1:1 interaction model to extract association and dissociation rate constants (kₐ and kd, respectively) for each antibody. Apparent affinity constants (KD) were calculated from the ratio kd/kₐ.
The affinities of S7AB-H8 and variants S7AB-H8.1 through S7AB-H8.45 for human Siglec-7 were measured by BioLayer Interferometry according to the method described in Example 1 above.

T1 sequence (Q9Y286 19-353 limits assumed): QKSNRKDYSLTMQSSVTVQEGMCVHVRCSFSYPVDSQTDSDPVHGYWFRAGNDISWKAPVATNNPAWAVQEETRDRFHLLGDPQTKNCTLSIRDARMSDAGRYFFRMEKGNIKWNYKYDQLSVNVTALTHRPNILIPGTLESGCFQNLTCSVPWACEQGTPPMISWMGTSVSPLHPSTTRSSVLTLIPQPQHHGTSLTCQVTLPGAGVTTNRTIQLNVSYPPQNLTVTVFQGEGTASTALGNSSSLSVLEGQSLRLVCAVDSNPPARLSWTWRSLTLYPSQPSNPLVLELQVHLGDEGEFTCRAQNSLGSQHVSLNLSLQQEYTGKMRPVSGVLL

First: B1
Second: B2
The Kd of the first is 2-fold higher: 0.574 nM for the first, 0.294 nM for the second.

First: B3
Second: B4
The Kd of the first is 3.1-fold higher: 1.62 nM for the first, 0.527 nM for the second. The second binds more tightly here.

Compared with B5, B6 is 12-fold higher in Kd: 0.214 nM for the first, 2.6 nM for the second. The first binds more tightly here.

Going from B7 to B8, the Kd falls from 2.24 nM to 0.227 nM (9.9-fold).

Going from B9 to B10, the Kd falls from 124 nM to 0.371 nM (330-fold). The second binds more tightly here.

Going from B11 to B12, the Kd falls from 35.7 nM to 0.351 nM (100-fold). The second binds more tightly here.

Compared with B13, B14 is 75-fold higher in Kd: 0.62 nM for the first, 46.3 nM for the second. The first binds more tightly here.

Work on B15 yielded a Kd of 54.1 nM.

Going from B1 to B2, the “fold improvement over S7AB-H8” value rises from 1.8 fold to 3.6 fold.

Going from B3 to B4, the “fold improvement over S7AB-H8” value rises from 0.6 fold to 2 fold.

First: B5
Second: B6
The “fold improvement over S7AB-H8” value of the first is higher: 4.9 fold for the first, 0.4 fold for the second.

Going from B7 to B8, the “fold improvement over S7AB-H8” value rises from 0.5 fold to 4.6 fold.

Going from B9 to B10, the “fold improvement over S7AB-H8” value rises from 0.01 fold to 2.8 fold.

Going from B11 to B12, the “fold improvement over S7AB-H8” value rises from 0.03 fold to 3 fold.

Going from B13 to B14, the “fold improvement over S7AB-H8” value falls from 1.7 fold to 0.02 fold.

For B15, the “fold improvement over S7AB-H8” value was 0.02 fold.

B1 and B2 are within 1.5-fold of each other in koff: 7.05e-05 s⁻¹ for the first, 6.05e-05 s⁻¹ for the second.

Going from B3 to B4, the koff falls from 8.14e-05 s⁻¹ to 4.82e-05 s⁻¹ (1.7-fold).

Compared with B5, B6 is 19-fold higher in koff: 3.15e-05 s⁻¹ for the first, 0.000607 s⁻¹ for the second.

First: B7
Second: B8
The koff of the first is 1.8-fold higher: 5.71e-05 s⁻¹ for the first, 3.23e-05 s⁻¹ for the second.

First: B9
Second: B10
The koff of the first is 6.1-fold higher: 0.000388 s⁻¹ for the first, 6.33e-05 s⁻¹ for the second.

Going from B11 to B12, the koff falls from 0.000303 s⁻¹ to 4.08e-05 s⁻¹ (7.4-fold).

Compared with B13, B14 is 3.7-fold higher in koff: 4.19e-05 s⁻¹ for the first, 0.000155 s⁻¹ for the second.

B15 gave a koff of 0.000176 s⁻¹.

Going from B1 to B2, the kon rises from 123000 M⁻¹ s⁻¹ to 206000 M⁻¹ s⁻¹ (1.7-fold).

Compared with B3, B4 is 1.8-fold higher in kon: 50400 M⁻¹ s⁻¹ for the first, 91400 M⁻¹ s⁻¹ for the second.

Compared with B5, B6 is 1.6-fold higher in kon: 147000 M⁻¹ s⁻¹ for the first, 233000 M⁻¹ s⁻¹ for the second.

First: B7
Second: B8
The kon of the first is 5.6-fold lower: 25500 M⁻¹ s⁻¹ for the first, 142000 M⁻¹ s⁻¹ for the second.

Going from B9 to B10, the kon rises from 3140 M⁻¹ s⁻¹ to 171000 M⁻¹ s⁻¹ (54-fold).

First: B11
Second: B12
The kon of the first is 14-fold lower: 8500 M⁻¹ s⁻¹ for the first, 116000 M⁻¹ s⁻¹ for the second.

Compared with B13, B14 is 20-fold lower in kon: 67600 M⁻¹ s⁻¹ for the first, 3350 M⁻¹ s⁻¹ for the second.

B15 showed a kon of 3260 M⁻¹ s⁻¹.

The binders below were run against human Siglec-7 on primary human monocyte-derived dendritic cells (human, UniProt Q9Y286 19-467) (assay: cell-based or functional assay).
human Siglec-7 on primary human monocyte-derived dendritic cells, sequence (Q9Y286 19-467): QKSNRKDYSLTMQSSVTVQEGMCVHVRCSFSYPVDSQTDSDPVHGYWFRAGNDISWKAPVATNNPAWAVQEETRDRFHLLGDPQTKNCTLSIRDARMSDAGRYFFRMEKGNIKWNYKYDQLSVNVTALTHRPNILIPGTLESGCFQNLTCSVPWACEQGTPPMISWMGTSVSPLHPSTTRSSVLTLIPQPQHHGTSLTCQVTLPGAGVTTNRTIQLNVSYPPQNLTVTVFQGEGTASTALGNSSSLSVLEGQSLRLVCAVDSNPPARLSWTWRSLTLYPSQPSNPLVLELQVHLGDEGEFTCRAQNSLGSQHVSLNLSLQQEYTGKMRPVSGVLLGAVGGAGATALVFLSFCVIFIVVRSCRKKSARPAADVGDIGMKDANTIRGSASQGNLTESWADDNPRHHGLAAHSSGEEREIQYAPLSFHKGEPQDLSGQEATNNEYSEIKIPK

Going from B1 to B16, the “Fold increase in potency compared to AB-H8” value (shortened to “Fold increase … to AB-H8”) rises from 2.9 fold to 3.7 fold.

Going from B17 to B18, the “Fold increase … to AB-H8” value rises from 3.3 fold to 4.9 fold.

Going from B19 to B20, the “Fold increase … to AB-H8” value falls from 4.7 fold to 1.8 fold.

Going from B2 to B3, the “Fold increase … to AB-H8” value falls from 3.8 fold to 1.7 fold.

Going from B4 to B5, the “Fold increase … to AB-H8” value rises from 2.9 fold to 4.3 fold.

First: B7
Second: B8
The “Fold increase … to AB-H8” value of the first is lower: 2.2 fold for the first, 3.9 fold for the second.

Going from B9 to B10, the “Fold increase … to AB-H8” value rises from 0.05 fold to 3.8 fold.

Compared with B11, B12 is higher in “Fold increase … to AB-H8” value: 0.1 fold for the first, 3.9 fold for the second.

Going from B13 to B14, the “Fold increase … to AB-H8” value falls from 4 fold to 0.01 fold.

B15 was tested, and the “Fold increase … to AB-H8” value was 0.2 fold.

Going from B1 to B16, the “Fold increase in potency compared to Chimeric Ab” value (“Fold increase … to Chimeric Ab” for short) rises from 8.7 fold to 11.2 fold.

First: B17
Second: B18
The “Fold increase … to Chimeric Ab” value of the first is lower: 9.9 fold for the first, 14.7 fold for the second.

First: B19
Second: B20
The “Fold increase … to Chimeric Ab” value of the first is higher: 14.1 fold for the first, 5.3 fold for the second.

First: B2
Second: B3
The “Fold increase … to Chimeric Ab” value of the first is higher: 11.5 fold for the first, 5.2 fold for the second.

Going from B4 to B5, the “Fold increase … to Chimeric Ab” value rises from 8.8 fold to 12.9 fold.

Compared with B7, B8 is higher in “Fold increase … to Chimeric Ab” value: 6.6 fold for the first, 11.8 fold for the second.

Compared with B9, B10 is higher in “Fold increase … to Chimeric Ab” value: 0.1 fold for the first, 11.4 fold for the second.

First: B11
Second: B12
The “Fold increase … to Chimeric Ab” value of the first is lower: 0.5 fold for the first, 11.8 fold for the second.

First: B13
Second: B14
The “Fold increase … to Chimeric Ab” value of the first is higher: 12.1 fold for the first, 0.04 fold for the second.

B15 was tested, and the “Fold increase … to Chimeric Ab” value was 0.5 fold.

Compared with B1, B16 is lower in “Maximal downregulation (% Siglec-7 remaining)” value: 10.9% for the first, 7.8% for the second.

Going from B17 to B18, the “Maximal downregulation (% Siglec-7 remaining)” value falls from 8.7% to 4.1%.

First: B19
Second: B20
The “Maximal downregulation (% Siglec-7 remaining)” value of the first is lower: 3.3% for the first, 10.8% for the second.

Going from B2 to B3, the “Maximal downregulation (% Siglec-7 remaining)” value falls from 20.1% to 7%.

Compared with B4, B5 is higher in “Maximal downregulation (% Siglec-7 remaining)” value: 3.1% for the first, 4.5% for the second.

Going from B6 to B7, the “Maximal downregulation (% Siglec-7 remaining)” value falls from 85% to 7.2%.

Going from B8 to B9, the “Maximal downregulation (% Siglec-7 remaining)” value rises from 3.3% to 74.7%.

Compared with B10, B11 is higher in “Maximal downregulation (% Siglec-7 remaining)” value: 19.2% for the first, 43.3% for the second.

Going from B12 to B13, the “Maximal downregulation (% Siglec-7 remaining)” value falls from 9.5% to 2.1%.

Compared with B14, B15 is lower in “Maximal downregulation (% Siglec-7 remaining)” value: 61.3% for the first, 45.7% for the second.

With B21 the “Maximal downregulation (% Siglec-7 remaining)” value was 28.6%.

First: B1
Second: B16
The “Receptor downregulation, (EC50) (pM)” value of the first is higher: 117 pM for the first, 97 pM for the second.

Going from B17 to B18, the “Receptor downregulation, (EC50) (pM)” value falls from 109 pM to 73.9 pM.

First: B19
Second: B20
The “Receptor downregulation, (EC50) (pM)” value of the first is lower: 76.7 pM for the first, 205 pM for the second.

Going from B2 to B3, the “Receptor downregulation, (EC50) (pM)” value rises from 89.2 pM to 197 pM.

First: B4
Second: B5
The “Receptor downregulation, (EC50) (pM)” value of the first is higher: 116 pM for the first, 79.5 pM for the second.

Compared with B6, B7 is lower in “Receptor downregulation, (EC50) (pM)” value: greater than 3000 pM for the first, 154 pM for the second.

First: B8
Second: B9
The “Receptor downregulation, (EC50) (pM)” value of the first is lower: 87 pM for the first, 7140 pM for the second.

Going from B10 to B11, the “Receptor downregulation, (EC50) (pM)” value rises from 89.8 pM to 2270 pM.

Compared with B12, B13 is lower in “Receptor downregulation, (EC50) (pM)” value: 87 pM for the first, 84.7 pM for the second.

Going from B14 to B15, the “Receptor downregulation, (EC50) (pM)” value falls from 25400 pM to 1950 pM.

With B21 the “Receptor downregulation, (EC50) (pM)” value was 1024 pM.
